Km and kcat/Km data for one protein are collected here from PMC9143606, “Reactivity of a Recombinant Esterase from Thermus thermophilus HB27 in Aqueous and Organic Media” (Microorganisms, 2022).

Common to all, as to assay: purified protein
Common to all, as to assay type: biochemical, Thermus thermophilus
Common to all, as to settings: pH 7.5, 47.5 °C, 10% (v/v) isopropanol, enzyme prediluted in 50 mM phosphate

Substrate in series [1]: CCCCCCCCCC(=O)Oc1ccc([N+](=O)[O-])cc1
Substrate in series [2]: CCCCCCCCCCCC(=O)Oc1ccc([N+](=O)[O-])cc1
Substrate in series [3]: CCCCCCCC(=O)Oc1ccc([N+](=O)[O-])cc1
Substrate in series [4]: CCCCCCCCCCCCCC(=O)Oc1ccc([N+](=O)[O-])cc1

B1: KLEST-3S esterase (E34Tt, N-terminally truncated ∆N16 variant) (Thermus thermophilus HB27) (protein)
chain: QGLEAFWKAVEVPGGVCADGSPYRFYVSPGDPRKVVVDFQGGGACWDQATCGPESRTYRKRVDVQELYLAQGIYNRMSVANPFFGWTHVFVPYCTGDLHVGRATVDYGGFKVHHQGARNAQAALEYVFRNHTNPERVFVTGCSAGAYGAVLWADKILATYKNAQIAVCGDAGVGVVTEDFPGFTAWNPRLPELPGLSSPPKVSEIYRALAQAYPKAVLAQYTTLLDGTQIYFYALMKKEAAPSEATAREWAVAAERAVGFPASEANYTYYLAPGSQHCILPRPELYTLKVGEVSFLDWLRALAEGRTPPRVRP
notes: ∆N16 (putative secretion signal removed; printed cleavage site between residues 16 and 17); secreted by Kluyveromyces lactis NRRL-Y1140; cell-free medium concentrated by ultrafiltration, partially purified, essentially free of contaminant proteins
Turning to B1, the Km (commonly the concentration of substrate that gives half-maximal velocity) is 90 ± 10 µM in “purified protein [1]”, 140 ± 30 µM in “purified protein [2]”, 130 ± 30 µM in “purified protein [3]” and 190 ± 40 µM in “purified protein [4]”. For the same protein, the kcat/Km (commonly the turnover number divided by the Michaelis constant) in “purified protein [1]” is 4.59e+07 M⁻¹ s⁻¹; in “purified protein [2]”, 2.34e+07 M⁻¹ s⁻¹; in “purified protein [3]”, 3.95e+07 M⁻¹ s⁻¹; in the series “purified protein [4]”, 322000 M⁻¹ s⁻¹.
